Drawing on the RNAGym collection of RNA variant scans (doi:10.1093/nar/gkz1192), this text covers self-cleavage for 167 variants.

The labels stand for the following.
B1: CPEB3 Ribozyme (parent)
chain: UAACAGGGGGCCACAGCAGAAGCGUUCACGUCGCAGCCCCUGUCAGAUUCUGGUGAAUCUGCGAAUUCUGCUGUAUAUCUC

The series covers variants of B1. Description: self-cleavage, relative activity (ratio to wild type); higher = more cleavage; in vitro, sequencing. The gist of the method: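 Relative activity compares each variant's cleaved/total read fraction with that of the unmutated ribozyme. To get these fractions, barcoded CPEB3 ribozyme libraries from rounds of error-prone PCR were transcribed with T7 RNA polymerase for 5 hours at 37°C and then given 15 min of DNase I treatment before EDTA was added. The RNAs were reverse transcribed with template switching and sequenced on Illumina, and DNA sequencing linked barcodes to variants. A minimum of 5 reads applied, and three batches were averaged.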
As for U51C U66A, the self-cleavage amounted to 0.65.

For A13U G22U, the self-cleavage came to 0.34. To U58G A65G belongs 0.1; to C23U A47G, 0.18; to A20C A64U, 0.17. On to U41G U80C, for which the self-cleavage amounted to 0.29. Take A18U G19U: the self-cleavage was found to be 0.21. As for A18U G19A, the self-cleavage stood at 0.15.

Take U60C C79A: the self-cleavage was 0.93. To G6A G7A belongs 0.09. Take C11A A47G: the self-cleavage is 0.51. To A20G U74G belongs 1.17; to A47U G63A, 0.29. To A28U U48A belongs 0.38.

For A21U U74C, the self-cleavage is 0.76.

C29U U58G: the self-cleavage was found to be 0.17. The value for A15G C40A was 0.41; that for A57C U58C was 0.3. The value for A2U G42A was 0.43; that for C29G G73A was 0.39; that for G9U U41C was 0.32.

On to A18C U72G, for which the self-cleavage came out at 0.12. To A13U U60C belongs 0.64; to A45G G52A, 0.94. To A28G U48G belongs 0.43; to U43G A45G, 0.19; to C17U U67C, 0.22.

Turning to G8U C62U, the self-cleavage came out at 0.12.

In the case of C23A U51C, the self-cleavage is 0.27. The value for C38U U58C was 0.19. To G8A U78C belongs 0.35; to C29U G42A, 0.21; to U25A A47G, 0.33.

As for U25A A47U, the self-cleavage is 0.27. As to A15C U58C, the self-cleavage amounted to 0.21. As for U26A C44U, the self-cleavage is 0.46. The value for A45U A47C was 0.22; that for A35U G61A was 0.27; that for C29U C79G was 0.68. On to A5C A28G, for which the self-cleavage amounted to 0.63.

With A5C U72C, the self-cleavage is 1.09.

As to A2U A65G, the self-cleavage came to 0.26. Consider G16C U54C, for which the self-cleavage was determined as 0.46. To G55U U72C belongs 0.78. To C39U U80C belongs 0.8; to U25A U78G, 0.37; to U26G A64G, 0.25. To U31C U41G belongs 0.34; to C40A, 0.28; to A75G U80A, 1.08. As to U48G U72A, the self-cleavage turned out to be 0.44. The value for U43A U72A was 0.71; that for C12G U66C was 0.24. The value for A18C U31C was 0.28; that for A64U C68A was 0.37; that for U69G A77G was 0.78. The value for G7U A75U was 0.13; that for A2G A65G was 0.29; that for U49A A56U was 1.19. In the case of G9C U43C, the self-cleavage came to 0.13. To A2U A75G belongs 1.04; to U25C A45U, 0.28; to G16U A28U, 0.26. On to A28G C59U, for which the self-cleavage stood at 0.54.

For U58C U66G, the self-cleavage is 0.23. The value for C34G U76G was 0.32. To A18U A57U belongs 0.33. In the case of U25C C71G, the self-cleavage was 0.1.

For A21C U26A, the self-cleavage was 0.23.

For the variant G53A U67A, the self-cleavage was 0.55.

Take A5C C34U: the self-cleavage came out at 0.47.

On to C23U C37U, for which the self-cleavage is 0.2. For the variant U80A C81U, the self-cleavage is 1.24. The value for U49C C50A was 0.78.

On to A15U G42A, for which the self-cleavage is 0.61. The value for A18G U25C was 0.26; that for C12A U49C was 0.63; that for A47G U48C was 0.31. To U25C U54A belongs 0.28; to A15G G46A, 0.38; to U25C G46U, 0.2. Turning to C59A G73U, the self-cleavage came out at 1.11. The value for U49A U66A was 0.24. The value for A57G U72C was 1.05; that for A35G C39U was 1.21; that for G6U A64G was 0.32. The value for U1C U78C was 0.8. Regarding C40A A45U, the self-cleavage was 0.31. In the case of C32U A75G, the self-cleavage stood at 0.11. Turning to U58A U74C, the self-cleavage is 0.67. The value for G52C U67C was 0.57; that for U41C A75U was 1.18; that for A13U U26C was 0.64. The value for G7U U72C was 0.25; that for U69G U78C was 0.71. The value for A56G G63U was 1.03; that for A56U A77G was 0.71. As to U51C G55A, the self-cleavage is 0.75. Regarding G33A U49A, the self-cleavage is 0.29. As for C50A G73A, the self-cleavage came out at 1.24.

As for U66A A77U, the self-cleavage came to 0.65.

Regarding C12A U74G, the self-cleavage was 1.28. The value for A5G U25A was 0.42. On to G33A A65G, for which the self-cleavage worked out at 0.35. The value for U31A A35C was 0.27; that for U49C G53A was 0.52; that for U31C U78A was 0.86. The value for A5G G22A was 0.24; that for U1A A15G was 0.72; that for C17A A35G was 0.49.

Take A18C U54C: the self-cleavage worked out at 0.32.

On to C11U A15C, for which the self-cleavage was 0.5.

Regarding A20U U69A, the self-cleavage worked out at 0.22.

For the variant U25C C50G, the self-cleavage stood at 0.37. The value for C27U U41C was 0.2.

With C59G U76A, the self-cleavage was found to be 0.47. To G33C U43C belongs 0.22; to A21G U54G, 0.4; to U31G U67A, 0.25.

Take A28G U54C: the self-cleavage was 0.58. The value for U54G U60C was 0.44; that for U48C A56C was 0.33; that for C39A U54C was 0.25. Consider U72G C79U, for which the self-cleavage was determined as 1.21.

On to A15C A21C, for which the self-cleavage turned out to be 0.26. To C11G A15G belongs 0.58; to A47G U60C, 0.37; to A20U G70U, 0.15. The value for U43A A56U was 0.88; that for U66C U69A was 0.3; that for A3G U31C was 0.84. To U51A U54G belongs 0.43. With C11U A13G, the self-cleavage worked out at 0.43. To U67C U72A belongs 0.33; to C39U, 0.91.

For A13U C44A, the self-cleavage worked out at 0.29. To G8A A47U belongs 0.2; to G70A U72C, 0.42. For A18U G53A, the self-cleavage was 0.56. The value for C32A C40G was 0.43. To C17A C62G belongs 0.17; to U26C U49A, 0.3; to U69A A75U, 0.66. The value for U49C U60C was 0.22; that for A2G U60A was 0.22; that for A5G G7C was 0.5.

Turning to C34G C71U, the self-cleavage was 0.52.

For the variant U26C A45G, the self-cleavage stood at 0.32. As for C11U U69A, the self-cleavage amounted to 0.24. To C29U C62G belongs 0.24; to G36C C62U, 0.15.

As for G8C U43C, the self-cleavage was 0.4.

In the case of G9C A15C, the self-cleavage was 0.34. Regarding A56G A64C, the self-cleavage is 0.46. As for A15U A47G, the self-cleavage is 0.51. The value for A35U U72C was 0.54. To C39G A65G belongs 0.17; to A2G C62U, 0.32; to A28G G30C, 0.32. Take U51A G63A: the self-cleavage turned out to be 1. The value for U1C A28G was 0.55; that for C37A A75G was 0.19. The value for U66A U69A was 0.32.

On to G7U A15U, for which the self-cleavage was found to be 0.23.

For G7U G42U, the self-cleavage was determined as 0.14.

Take U1A A13U: the self-cleavage turned out to be 1.16.

In the case of U41A U49A, the self-cleavage came out at 0.23.
